The results in this text go back to the supplement of paper PMC10065799, “High-throughput profiling of sequence recognition by tyrosine kinases and SH2 domains using bacterial peptide display” (eLife, 2023).

One series addresses c-Src SH2. Nature of the series: SH2 binding enrichment of the phosphorylated peptide, bacterial display (enrichment ratio); higher = better substrate or ligand; peptides without Tyr show the background.
A further series deals with SHP2-C SH2. Described as above.
A further series concerns the target Grb2 SH2 (UniProt P62993). The series is described as above.
The target in the next series is FGFR1 (UniProt P11362). Nature of the series: phosphorylation enrichment, bacterial display (enrichment ratio); higher = better substrate or ligand; peptides without Tyr show the background.
For the next series, the target named is Jak2 (UniProt O60674). Described as above.
The target of another series is EPHB2 (UniProt P29323). Described as above.
For a further series, the system named is c-Abl (mouse). The series is described as above.
The target in the next series is MERTK (UniProt Q12866). The series is described as above.
A further series deals with FGFR3 (UniProt P22607). The description is as above.
The next series deals with AncSZ. The description is as above.
In another series the target is Hck (UniProt P08631). The series is described as above.
The next series concerns the target Fes (UniProt P07332). The series is described as above.
A further series concerns the target EPHB1 (UniProt P54762). The series is described as above.
The next series deals with Fyn (UniProt P06241). Described as above.
The subject of another series is c-Src. Described as above.
The test system of a further series is Fer (mouse). The description is as above.
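For SH2 binding enrichment of the phosphorylated peptide, bacterial display in this document: peptide library displayed on the E. coli surface as eCPX fusions, selected cells deep-sequenced, score is each peptide's frequency after selection divided by its frequency in the input.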
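For phosphorylation enrichment, bacterial display in this document: 11-residue human phosphosite peptides and single-mutation variants displayed on the E. coli surface, counted by deep sequencing, each peptide's frequency after selection divided by its frequency in the unselected input library; frequency after pTyr selection over input frequency; kinase dosed for 20-30% of maximal phosphorylation in three min.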

Sequence of Fyn (P06241 whole entry, looked up): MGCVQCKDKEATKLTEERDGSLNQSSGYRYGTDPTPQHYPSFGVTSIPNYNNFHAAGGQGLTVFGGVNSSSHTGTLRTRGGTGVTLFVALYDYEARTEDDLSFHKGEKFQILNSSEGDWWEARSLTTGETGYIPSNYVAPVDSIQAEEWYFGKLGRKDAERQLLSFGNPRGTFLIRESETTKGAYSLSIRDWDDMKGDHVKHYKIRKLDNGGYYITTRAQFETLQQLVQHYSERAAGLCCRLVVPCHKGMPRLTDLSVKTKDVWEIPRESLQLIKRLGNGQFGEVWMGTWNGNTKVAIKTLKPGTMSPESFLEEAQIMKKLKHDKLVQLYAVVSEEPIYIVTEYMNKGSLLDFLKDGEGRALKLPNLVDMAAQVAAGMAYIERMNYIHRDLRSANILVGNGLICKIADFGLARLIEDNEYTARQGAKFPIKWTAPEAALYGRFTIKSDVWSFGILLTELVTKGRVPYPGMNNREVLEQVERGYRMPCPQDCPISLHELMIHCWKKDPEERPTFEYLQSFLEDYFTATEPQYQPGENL
Sequence of EPHB2 (P29323 whole entry, looked up): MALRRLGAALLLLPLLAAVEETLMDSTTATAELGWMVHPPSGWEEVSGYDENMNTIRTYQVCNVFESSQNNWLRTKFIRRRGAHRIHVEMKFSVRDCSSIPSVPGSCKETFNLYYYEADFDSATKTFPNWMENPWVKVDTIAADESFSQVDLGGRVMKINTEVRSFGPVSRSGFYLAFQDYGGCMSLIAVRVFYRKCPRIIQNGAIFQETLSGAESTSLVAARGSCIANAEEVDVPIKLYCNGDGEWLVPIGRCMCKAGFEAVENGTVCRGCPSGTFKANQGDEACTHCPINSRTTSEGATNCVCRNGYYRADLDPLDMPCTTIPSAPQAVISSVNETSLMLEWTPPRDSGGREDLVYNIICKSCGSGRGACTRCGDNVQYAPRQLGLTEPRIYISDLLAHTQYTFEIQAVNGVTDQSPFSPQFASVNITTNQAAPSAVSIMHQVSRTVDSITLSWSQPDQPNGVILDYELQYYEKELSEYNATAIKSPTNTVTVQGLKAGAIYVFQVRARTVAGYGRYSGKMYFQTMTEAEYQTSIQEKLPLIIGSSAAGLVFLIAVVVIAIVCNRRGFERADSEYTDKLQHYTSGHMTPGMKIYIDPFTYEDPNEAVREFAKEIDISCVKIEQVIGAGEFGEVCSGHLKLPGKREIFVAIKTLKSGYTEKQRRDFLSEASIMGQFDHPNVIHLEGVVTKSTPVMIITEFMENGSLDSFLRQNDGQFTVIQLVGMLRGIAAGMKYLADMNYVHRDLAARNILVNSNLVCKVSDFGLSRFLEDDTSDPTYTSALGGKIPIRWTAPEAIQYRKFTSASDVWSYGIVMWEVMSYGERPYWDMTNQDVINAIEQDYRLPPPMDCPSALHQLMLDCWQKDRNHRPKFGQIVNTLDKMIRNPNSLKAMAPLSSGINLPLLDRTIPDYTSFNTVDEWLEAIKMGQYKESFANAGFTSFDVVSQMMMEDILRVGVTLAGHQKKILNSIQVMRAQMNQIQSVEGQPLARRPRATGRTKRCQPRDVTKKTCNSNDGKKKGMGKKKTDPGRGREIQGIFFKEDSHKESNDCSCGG
Sequence of Jak2 (O60674 whole entry, looked up): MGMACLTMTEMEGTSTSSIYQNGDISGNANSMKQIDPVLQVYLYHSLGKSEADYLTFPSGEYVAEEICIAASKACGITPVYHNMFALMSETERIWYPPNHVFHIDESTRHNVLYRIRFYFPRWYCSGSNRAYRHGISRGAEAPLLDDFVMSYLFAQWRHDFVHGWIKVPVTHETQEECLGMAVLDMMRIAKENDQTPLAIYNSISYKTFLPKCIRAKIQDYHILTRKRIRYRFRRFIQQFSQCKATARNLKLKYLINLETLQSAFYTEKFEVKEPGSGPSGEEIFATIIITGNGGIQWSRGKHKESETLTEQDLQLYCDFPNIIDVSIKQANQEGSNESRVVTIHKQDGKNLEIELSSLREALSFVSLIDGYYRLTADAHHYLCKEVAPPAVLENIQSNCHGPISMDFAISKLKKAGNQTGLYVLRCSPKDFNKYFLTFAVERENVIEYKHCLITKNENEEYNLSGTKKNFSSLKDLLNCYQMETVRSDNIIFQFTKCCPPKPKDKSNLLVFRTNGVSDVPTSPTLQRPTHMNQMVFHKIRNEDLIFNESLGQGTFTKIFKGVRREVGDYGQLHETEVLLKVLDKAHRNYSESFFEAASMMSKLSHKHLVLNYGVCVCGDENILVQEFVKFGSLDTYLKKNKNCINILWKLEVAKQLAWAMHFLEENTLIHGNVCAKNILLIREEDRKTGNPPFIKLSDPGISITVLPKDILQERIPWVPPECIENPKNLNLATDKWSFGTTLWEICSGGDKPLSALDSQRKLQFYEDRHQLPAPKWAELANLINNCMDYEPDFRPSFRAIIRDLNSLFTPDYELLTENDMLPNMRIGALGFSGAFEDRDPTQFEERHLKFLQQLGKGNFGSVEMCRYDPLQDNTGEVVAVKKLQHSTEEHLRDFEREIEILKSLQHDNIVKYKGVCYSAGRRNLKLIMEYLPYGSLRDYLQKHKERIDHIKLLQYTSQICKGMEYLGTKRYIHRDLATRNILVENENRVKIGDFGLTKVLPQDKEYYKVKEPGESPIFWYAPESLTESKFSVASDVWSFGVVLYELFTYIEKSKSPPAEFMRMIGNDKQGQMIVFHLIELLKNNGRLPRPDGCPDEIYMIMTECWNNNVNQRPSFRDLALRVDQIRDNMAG
Sequence of EPHB1 (P54762 whole entry, looked up): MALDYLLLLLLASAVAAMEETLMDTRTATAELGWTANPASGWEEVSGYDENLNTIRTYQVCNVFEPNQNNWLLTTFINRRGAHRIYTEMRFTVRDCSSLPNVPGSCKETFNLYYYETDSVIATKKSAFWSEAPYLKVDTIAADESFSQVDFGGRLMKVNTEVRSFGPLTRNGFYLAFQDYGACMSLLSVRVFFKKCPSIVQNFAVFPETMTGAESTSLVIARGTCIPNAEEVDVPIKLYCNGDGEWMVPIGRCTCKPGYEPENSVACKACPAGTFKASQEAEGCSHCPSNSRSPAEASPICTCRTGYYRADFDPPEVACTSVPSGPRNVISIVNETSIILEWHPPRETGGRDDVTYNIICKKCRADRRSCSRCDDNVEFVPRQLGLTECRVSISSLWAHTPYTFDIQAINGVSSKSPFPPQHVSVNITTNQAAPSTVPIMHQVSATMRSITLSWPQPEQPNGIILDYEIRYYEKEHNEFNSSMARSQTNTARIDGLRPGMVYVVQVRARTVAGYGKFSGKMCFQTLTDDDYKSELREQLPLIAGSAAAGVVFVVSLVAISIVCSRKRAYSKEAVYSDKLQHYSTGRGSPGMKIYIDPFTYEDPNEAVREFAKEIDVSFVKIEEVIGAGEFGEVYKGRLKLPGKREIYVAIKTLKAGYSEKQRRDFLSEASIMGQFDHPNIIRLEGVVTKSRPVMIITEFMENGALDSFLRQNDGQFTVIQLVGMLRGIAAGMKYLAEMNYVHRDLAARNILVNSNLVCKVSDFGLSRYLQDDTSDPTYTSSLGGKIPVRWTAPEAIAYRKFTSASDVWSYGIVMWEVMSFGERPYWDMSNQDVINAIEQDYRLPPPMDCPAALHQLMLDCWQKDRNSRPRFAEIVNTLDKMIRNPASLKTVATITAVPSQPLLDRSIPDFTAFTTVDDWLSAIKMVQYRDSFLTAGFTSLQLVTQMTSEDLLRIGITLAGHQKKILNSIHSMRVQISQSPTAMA
Sequence of MERTK (Q12866 whole entry, looked up): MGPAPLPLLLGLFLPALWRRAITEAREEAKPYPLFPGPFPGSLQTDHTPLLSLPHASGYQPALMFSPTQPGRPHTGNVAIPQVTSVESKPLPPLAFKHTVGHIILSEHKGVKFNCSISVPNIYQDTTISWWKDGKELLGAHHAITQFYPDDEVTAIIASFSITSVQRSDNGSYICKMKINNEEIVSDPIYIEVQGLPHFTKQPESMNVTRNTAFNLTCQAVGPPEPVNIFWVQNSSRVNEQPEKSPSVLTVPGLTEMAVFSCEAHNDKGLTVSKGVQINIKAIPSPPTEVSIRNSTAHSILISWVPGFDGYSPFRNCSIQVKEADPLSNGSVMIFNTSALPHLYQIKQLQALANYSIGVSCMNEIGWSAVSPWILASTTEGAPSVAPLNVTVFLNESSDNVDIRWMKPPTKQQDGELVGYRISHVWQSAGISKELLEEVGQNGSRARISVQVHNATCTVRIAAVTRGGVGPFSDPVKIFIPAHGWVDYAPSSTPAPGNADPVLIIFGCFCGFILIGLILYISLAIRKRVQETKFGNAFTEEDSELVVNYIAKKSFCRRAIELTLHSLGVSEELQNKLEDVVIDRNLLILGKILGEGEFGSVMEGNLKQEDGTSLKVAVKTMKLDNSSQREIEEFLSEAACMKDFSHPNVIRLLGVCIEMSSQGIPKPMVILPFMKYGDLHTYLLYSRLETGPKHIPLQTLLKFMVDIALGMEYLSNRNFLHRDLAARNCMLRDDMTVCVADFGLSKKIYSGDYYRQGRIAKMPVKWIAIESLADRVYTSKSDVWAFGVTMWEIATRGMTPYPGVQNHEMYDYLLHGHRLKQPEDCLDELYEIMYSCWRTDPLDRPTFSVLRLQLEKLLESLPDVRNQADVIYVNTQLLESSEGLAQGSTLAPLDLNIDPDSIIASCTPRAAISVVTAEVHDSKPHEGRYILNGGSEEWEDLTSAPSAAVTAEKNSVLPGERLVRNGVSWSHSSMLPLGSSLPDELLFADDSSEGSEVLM
Sequence of Grb2 SH2 (P62993 whole entry, looked up): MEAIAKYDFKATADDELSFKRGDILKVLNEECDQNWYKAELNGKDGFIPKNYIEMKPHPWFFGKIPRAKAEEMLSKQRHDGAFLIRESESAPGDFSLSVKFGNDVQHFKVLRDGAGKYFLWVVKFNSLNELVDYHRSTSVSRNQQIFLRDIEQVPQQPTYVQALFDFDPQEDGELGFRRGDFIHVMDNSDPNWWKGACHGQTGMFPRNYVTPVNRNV

Regarding ANARMYGVLPW [PLP1_Y207_D203N], the SH2 binding enrichment with c-Src SH2 is 0.503; with SHP2-C SH2, 0.749; in the series with Grb2 SH2, 0.814. Besides, the phosphorylation enrichment with FGFR1 came out at 0.462; in the series with Jak2 it was 0.616; with EPHB2, 0.676; with c-Abl (mouse) it was 0.846; in the series with MERTK it was 0.734; in the series with FGFR3, 0.506. Besides, the phosphorylation enrichment in the series on AncSZ amounted to 0.74; with Hck, 6.06; with Fes, 0.783; with EPHB1, 0.513; in the series with Fyn, 4.99; in the series with c-Src it was 3.85. Further, the phosphorylation enrichment in the series on Fer (mouse) is 0.474.
In the case of APQFTYTQGGQ [FLNA_Y1763_A1764T_YF], the SH2 binding enrichment with c-Src SH2 was determined as 0.597; in the series with SHP2-C SH2, 0.503; with Grb2 SH2, 0.75. The phosphorylation enrichment with FGFR1 was found to be 0.482; in the series with Jak2 it was 0.552; in the series with EPHB2, 0.536; in the series with c-Abl (mouse), 0.444; with MERTK it was 0.367; with FGFR3, 0.582. In addition, the phosphorylation enrichment in the series on AncSZ is 0.602; with Hck, 0.395; with Fes, 0.681; with EPHB1, 0.444; in the series with Fyn, 0.5; with c-Src, 0.42. For the same sequence, in the series with Fer (mouse), the phosphorylation enrichment turned out to be 0.423.
Consider AQPHTYEEPGR [EPHA8_Y616_E612Q], for which the SH2 binding enrichment with c-Src SH2 was 14.5; with SHP2-C SH2, 0.794; in the series with Grb2 SH2, 1.08. The phosphorylation enrichment with FGFR1 turned out to be 0.459; in the series with Jak2 it was 0.83; with EPHB2, 0.577; in the series on c-Abl (mouse) it was 0.465; in the series with MERTK it was 0.394; with FGFR3, 0.46. The phosphorylation enrichment in the series on AncSZ was determined as 0.74; with Hck, 0.46; with Fes, 0.729; with EPHB1, 0.519; with Fyn it was 0.481; in the series on c-Src, 0.452. Besides, in the series with Fer (mouse), the phosphorylation enrichment came out at 0.458.
AQQPIYIRVEG [NLRP7_Y318_V319I]: the SH2 binding enrichment with c-Src SH2 came out at 0.591; with SHP2-C SH2 it was 0.614; with Grb2 SH2 it was 1.03. In addition, the phosphorylation enrichment with FGFR1 came to 0.652; with Jak2, 0.955; with EPHB2, 1.2; in the series with c-Abl (mouse) it was 0.725; in the series with MERTK it was 0.641; with FGFR3 it was 0.702. The phosphorylation enrichment worked out at 1.12 in the series with AncSZ; 0.733 in the series with Hck; 1.18 with Fes; 1.3 with EPHB1; 0.525 in the series with Fyn; 0.793 with c-Src. Also, the phosphorylation enrichment with Fer (mouse) was determined as 0.588.
In the case of ARKWGYTVKGI [OAT_Y158], the values for the SH2 binding enrichment with c-Src SH2, with SHP2-C SH2 and with Grb2 SH2 were 0.479, 0.782 and 0.779, respectively. For the same sequence, the phosphorylation enrichment in the series with FGFR1 amounted to 0.437; in the series with Jak2, 0.668; with EPHB2, 0.448; in the series with c-Abl (mouse) it was 0.724; with MERTK it was 0.377; with FGFR3, 0.517. Also, the phosphorylation enrichment in the series on AncSZ came to 0.914; with Hck it was 0.354; in the series with Fes, 0.912; in the series with EPHB1, 0.503; in the series with Fyn it was 0.423; in the series on c-Src, 0.327. Further, the phosphorylation enrichment with Fer (mouse) amounted to 0.352.
As for ARRHPYFYAPE [ALB_Y172], the values for the SH2 binding enrichment with c-Src SH2, with SHP2-C SH2 and with Grb2 SH2 were 0.3, 0.47 and 0.61, respectively. Moreover, the phosphorylation enrichment with FGFR1 came to 1.87; with Jak2, 0.8; with EPHB2, 0.553; in the series on c-Abl (mouse), 0.605; with MERTK it was 0.893; in the series with FGFR3 it was 1.08. In addition, the phosphorylation enrichment with AncSZ was 0.883; in the series with Hck it was 0.575; with Fes, 0.766; in the series with EPHB1, 0.488; in the series with Fyn, 0.641; in the series with c-Src, 0.972. Besides, the phosphorylation enrichment in the series on Fer (mouse) is 0.58.
As for ARSHIYTFASC [MEFV_Y741], the SH2 binding enrichment in the series with c-Src SH2 was 1.66; with SHP2-C SH2 it was 0.763; with Grb2 SH2 it was 0.834. Further, the phosphorylation enrichment stood at 0.491 with FGFR1; 0.866 with Jak2; 0.533 in the series with EPHB2; 0.849 with c-Abl (mouse); 0.808 with MERTK; 0.653 with FGFR3. Also, the phosphorylation enrichment in the series with AncSZ turned out to be 0.932; in the series with Hck, 0.671; with Fes it was 1; with EPHB1 it was 0.488; in the series with Fyn, 1.41; in the series with c-Src, 1.3. Besides, the phosphorylation enrichment with Fer (mouse) came to 0.563.
As for ARVANYHRDGP [CAT_Y386_Q387H], the SH2 binding enrichment with c-Src SH2 was 0.49; in the series with SHP2-C SH2, 0.769; with Grb2 SH2 it was 0.776. In addition, the phosphorylation enrichment with FGFR1 came to 0.519; with Jak2, 0.491; with EPHB2 it was 0.378; with c-Abl (mouse), 0.457; in the series with MERTK it was 0.385; in the series with FGFR3, 0.394. Also, the phosphorylation enrichment with AncSZ was determined as 0.523; in the series with Hck it was 0.36; in the series with Fes, 0.514; with EPHB1, 0.309; with Fyn, 0.44; with c-Src it was 0.395. Moreover, the phosphorylation enrichment in the series with Fer (mouse) was found to be 0.372.
